From IntAct's records for PubMed 26779609

B1: CDKN2AIP N-terminal-like protein (Homo sapiens), Q96HQ2 (parent)
chain: MVGGEAAAAVEELVSGVRQAADFAEQFRSYSESEKQWKARMEFILRHLPDYRDPPDGSGRLDQLLSLSMVWANHLFLGCSYNKDLLDKVMEMADGIEVEDLPQFTTRSELMKKHQS
partner: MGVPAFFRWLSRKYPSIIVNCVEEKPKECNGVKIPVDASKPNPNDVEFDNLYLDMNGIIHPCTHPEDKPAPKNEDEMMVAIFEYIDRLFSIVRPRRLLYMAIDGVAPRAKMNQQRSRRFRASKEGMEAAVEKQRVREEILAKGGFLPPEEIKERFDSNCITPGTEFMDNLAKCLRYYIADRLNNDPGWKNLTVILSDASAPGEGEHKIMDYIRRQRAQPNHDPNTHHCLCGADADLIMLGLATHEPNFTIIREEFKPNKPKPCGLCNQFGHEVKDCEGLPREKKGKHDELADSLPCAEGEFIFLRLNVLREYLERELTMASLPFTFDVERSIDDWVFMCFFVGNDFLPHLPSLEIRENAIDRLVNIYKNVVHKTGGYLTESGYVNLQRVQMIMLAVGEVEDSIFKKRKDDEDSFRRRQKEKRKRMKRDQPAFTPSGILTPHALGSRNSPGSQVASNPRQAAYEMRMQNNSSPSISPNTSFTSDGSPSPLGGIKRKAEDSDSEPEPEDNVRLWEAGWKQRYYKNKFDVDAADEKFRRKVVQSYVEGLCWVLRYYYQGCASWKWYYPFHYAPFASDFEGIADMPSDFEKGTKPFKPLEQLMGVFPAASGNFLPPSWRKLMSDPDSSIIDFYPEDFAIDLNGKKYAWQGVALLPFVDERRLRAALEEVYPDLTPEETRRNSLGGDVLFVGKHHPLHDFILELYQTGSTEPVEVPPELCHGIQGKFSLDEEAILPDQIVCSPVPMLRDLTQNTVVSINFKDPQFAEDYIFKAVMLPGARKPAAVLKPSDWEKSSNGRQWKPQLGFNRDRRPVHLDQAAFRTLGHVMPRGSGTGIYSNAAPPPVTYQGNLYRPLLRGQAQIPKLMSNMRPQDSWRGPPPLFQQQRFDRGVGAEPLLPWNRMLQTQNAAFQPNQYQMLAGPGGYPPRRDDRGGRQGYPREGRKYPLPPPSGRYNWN
B2: Partner of xrn-2 protein 1 (Caenorhabditis elegans), Q21738 (parent)
chain: MGKLEDVEAEKKLWESDDAWELRKAFMLAHYDDYPKIQLQCLSQLFINVTLLGCEYSQTLMQKIRTMGAGIAANKDRTKTGSYVKASAAKKRQAVKTSDLEGASDESKKVKMEKSPSPVARESFDERLGKLKASLAMTPHHLTGEQMMKTATNSCLMKWHVNKINQKIEITIDRYVAFRHTFSQYCVDPRDCAINTLIESILSCDAAVHEESYEIRFDGVPVDECYAKSVTRRLAKIKSAVSNGAHTVKGLTTYLDAVNMSMIQNTQKLEGWSQQLDLVTADLLLSSRVLSSTECTKPAMATIANQMSEDVCQLILNDKINVINSMKSHSSLAFQ
partner: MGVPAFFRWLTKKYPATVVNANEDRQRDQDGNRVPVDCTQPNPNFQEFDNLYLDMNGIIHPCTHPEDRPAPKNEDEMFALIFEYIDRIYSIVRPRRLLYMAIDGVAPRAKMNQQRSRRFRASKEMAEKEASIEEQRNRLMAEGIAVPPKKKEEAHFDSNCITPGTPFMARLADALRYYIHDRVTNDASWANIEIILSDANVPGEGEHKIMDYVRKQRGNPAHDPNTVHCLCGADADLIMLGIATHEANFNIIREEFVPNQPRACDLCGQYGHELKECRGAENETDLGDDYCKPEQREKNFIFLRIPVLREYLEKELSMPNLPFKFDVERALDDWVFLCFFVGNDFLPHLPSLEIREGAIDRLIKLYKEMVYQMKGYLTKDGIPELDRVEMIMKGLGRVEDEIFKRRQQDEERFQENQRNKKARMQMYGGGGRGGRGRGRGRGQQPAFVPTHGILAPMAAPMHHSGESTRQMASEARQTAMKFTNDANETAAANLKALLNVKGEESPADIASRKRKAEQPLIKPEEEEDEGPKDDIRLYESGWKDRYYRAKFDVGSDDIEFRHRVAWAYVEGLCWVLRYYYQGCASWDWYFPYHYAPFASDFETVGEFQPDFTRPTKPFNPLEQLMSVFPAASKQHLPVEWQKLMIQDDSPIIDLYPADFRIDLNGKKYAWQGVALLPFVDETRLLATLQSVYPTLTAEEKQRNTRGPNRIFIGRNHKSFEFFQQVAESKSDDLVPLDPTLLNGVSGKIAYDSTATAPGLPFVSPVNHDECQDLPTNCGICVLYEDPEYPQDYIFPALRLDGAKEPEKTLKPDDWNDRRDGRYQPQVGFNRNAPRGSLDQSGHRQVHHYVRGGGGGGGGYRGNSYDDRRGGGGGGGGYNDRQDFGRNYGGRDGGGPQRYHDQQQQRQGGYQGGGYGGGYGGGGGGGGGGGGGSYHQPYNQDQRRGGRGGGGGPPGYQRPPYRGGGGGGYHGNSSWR

Variants of: B1
Conditions: with xrn2_human XRN2, Q9H0D6

Variant | effect of a mutation on the interaction
MVGGEAAAAVEELVSGVRQAADFAEQFRSYSESEKQWKARMEFILRHLPDYRDPPDGSGRLDQLLSLSMVWANHLFLGCSANKDLLDKVMEMADGIEVEDLPQFTTRSELMKKHQS [Y81A] | disrupting interaction strength

Variants of: B2
Conditions: with xrn2_caeel xrn-2, Q9U299

Variant | effect of a mutation on the interaction
MGKLEDVEAEKKLWESDDAWELRKAFMLAHYDDYPKIQLQCLSQLFINVTLLGAEYSQTLMQKIRTMGAGIAANKDRTKTGSYVKASAAKKRQAVKTSDLEGASDESKKVKMEKSPSPVARESFDERLGKLKASLAMTPHHLTGEQMMKTATNSCLMKWHVNKINQKIEITIDRYVAFRHTFSQYCVDPRDCAINTLIESILSCDAAVHEESYEIRFDGVPVDECYAKSVTRRLAKIKSAVSNGAHTVKGLTTYLDAVNMSMIQNTQKLEGWSQQLDLVTADLLLSSRVLSSTECTKPAMATIANQMSEDVCQLILNDKINVINSMKSHSSLAFQ [C54A] | disrupting interaction strength
MGKLEDVEAEKKLWESDDAWELRKAFMLAHYDDYPKIQLQCLSQLFINVTLLGCEASQTLMQKIRTMGAGIAANKDRTKTGSYVKASAAKKRQAVKTSDLEGASDESKKVKMEKSPSPVARESFDERLGKLKASLAMTPHHLTGEQMMKTATNSCLMKWHVNKINQKIEITIDRYVAFRHTFSQYCVDPRDCAINTLIESILSCDAAVHEESYEIRFDGVPVDECYAKSVTRRLAKIKSAVSNGAHTVKGLTTYLDAVNMSMIQNTQKLEGWSQQLDLVTADLLLSSRVLSSTECTKPAMATIANQMSEDVCQLILNDKINVINSMKSHSSLAFQ [Y56A] | disrupting interaction strength
